This note sets out measurements from article PMC2699478.

Assay [1] deals with NFAT (mouse (endogenous in NIH3T3)) (UniProt Q60591).
Assay [2] addresses NF-kB (mouse (endogenous in NIH3T3)).

Chain of UniProt Q60591 (Q60591 whole entry): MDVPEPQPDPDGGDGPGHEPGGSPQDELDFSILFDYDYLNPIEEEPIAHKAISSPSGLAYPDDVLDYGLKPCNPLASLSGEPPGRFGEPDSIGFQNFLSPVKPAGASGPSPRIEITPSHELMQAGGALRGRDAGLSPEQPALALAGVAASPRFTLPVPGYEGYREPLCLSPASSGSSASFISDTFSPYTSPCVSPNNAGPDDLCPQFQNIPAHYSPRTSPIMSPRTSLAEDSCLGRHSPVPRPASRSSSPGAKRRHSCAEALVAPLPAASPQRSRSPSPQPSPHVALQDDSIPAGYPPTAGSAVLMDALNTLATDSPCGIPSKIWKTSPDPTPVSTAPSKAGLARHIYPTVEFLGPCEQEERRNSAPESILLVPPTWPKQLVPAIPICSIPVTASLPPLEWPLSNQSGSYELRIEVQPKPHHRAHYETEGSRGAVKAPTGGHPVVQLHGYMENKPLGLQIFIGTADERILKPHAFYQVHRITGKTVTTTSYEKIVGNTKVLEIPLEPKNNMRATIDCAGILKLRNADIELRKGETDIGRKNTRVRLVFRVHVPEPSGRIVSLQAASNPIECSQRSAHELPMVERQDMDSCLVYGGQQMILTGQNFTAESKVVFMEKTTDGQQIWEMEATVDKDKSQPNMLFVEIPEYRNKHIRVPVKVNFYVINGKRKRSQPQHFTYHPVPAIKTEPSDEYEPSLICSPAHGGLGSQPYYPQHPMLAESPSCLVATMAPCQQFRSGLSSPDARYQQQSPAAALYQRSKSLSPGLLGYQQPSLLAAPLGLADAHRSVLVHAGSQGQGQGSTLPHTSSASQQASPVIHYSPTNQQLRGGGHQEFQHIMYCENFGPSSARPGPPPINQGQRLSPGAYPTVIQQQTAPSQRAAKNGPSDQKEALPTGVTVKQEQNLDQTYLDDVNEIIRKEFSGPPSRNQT

In assay [1], FOXP3Δ2 (natural protein) had an NFAT-mediated transcription of luciferase (pNFAT-TA-Luc) in NIH3T3 cells co-transfected with the FOXP3 isoform; induction without FOXP3 set 100% of 50%. In addition, in assay [2], the NF-kB-mediated transcription of luciferase (pNF-κB-Luc) in NIH3T3 cells co-transfected with the FOXP3 isoform; level left, induction without FOXP3 set 100% is 9%.
